Assay results reported in article PMC10907219, “Leishmania profilin interacts with actin through an unusual structural mechanism to control cytoskeletal dynamics in parasites” (The Journal of Biological Chemistry, 2024).

B2: Leishmania major profilin (LmProfilin), wild type (natural protein)
chain: SWQAYVDDSLIGSGNMHSAAIIGAADGSYWAYGGSYVPQPEEVQHIQKCLSDFSFVQSSGVNIYGVKFFGLQCGTDGDCKYIFFKKGAAGGCIYTTKQAFIVAVYGNPGDTSSLQQDLEKNTAHAVTVNPADCNTTVKRIADYLIKLGY
notes: Leishmania major profilin, TriTrypDB LmjF.32.0520, UniProt Q4Q5N1; codon-optimised synthetic gene in pCoofy3; also called WT LmProfilin; LmProf-WT; source: E. coli BL21(DE3), purified (Ni-NTA, tag cleavage with 3C-PreScission protease, gel filtration); not shown: His6, N-terminal, cleaved; GST, N-terminal, cleaved

How the values were obtained:
[1] = biological target: Leishmania major actin (LmActin), ATP-actin monomer (UniProt P45520); test: ITC; details: three independent ITC experiments for each protein; parent: 93.5
[2] = biological target: Leishmania major actin (LmActin), ATP-actin monomer (Leishmania major) (UniProt P45520); test: ITC; LmActin (14-19 μM) in the sample cell, profilin (150 μM) in the syringe; 22 °C; G-buffer (2 mM Tris pH 7.5, 0.5 mM β-mercaptoethanol, 0.2 mM CaCl2, 0.2 mM ATP); single set of sites model; three independent experiments
[3] = biological target: B2; test: other fluorescence titration; intrinsic tryptophan fluorescence of profilin (1 μM) with 3 to 3156 μM poly-L-proline decamer; room temperature; 20 mM Hepes pH 8.0, 50 mM NaCl; excitation 295 nm; OneSiteBind fit; details: both partners purified
[4] = biological target: T1, Leishmania major actin (LmActin), ATP-actin monomer (Leishmania major, UniProt P45520 1-376, ATP-bound with Ca2+ (G-buffer), monomeric; C-terminal beta-thymosin-His10 tag removed by chymotrypsin; initiator Met absent as in the 8C47 entity (equals Q9U1E8 2-376)); test: crystal structure; LmProfilin and LmActin mixed at ~1:1 molar ratio, 4.5 to 6.5 mg/ml, sitting drop; 0.1 M Bis-Tris pH 5.5, PEG4000 26% (w/v), 0.2 M NaCl; ATP-actin monomer with Ca2+; details: both partners purified
[5] = biological target: T1, Leishmania major actin (LmActin), …; test: ITC; LmActin (14-19 μM) in the sample cell, profilin (150 μM) in the syringe; 22 °C; G-buffer (2 mM Tris pH 7.5, 0.5 mM β-mercaptoethanol, 0.2 mM CaCl2, 0.2 mM ATP); single set of sites model; three independent experiments; details: both partners purified

## Leishmania major profilin (LmProfilin), wild type (from UniProt Q4Q5N1) L115S; L119S
[1]
  Kd: 2740 nM

## LmProfilin-K68A (from UniProt Q4Q5N1 2-150) (natural protein)
[2]
  Kd: 3000 nM

## LmProfilin-WH2-SS (Leu115 and Leu119 replaced by serines) (from UniProt Q4Q5N1 2-150) (natural protein)
[2]
  fold reduction of affinity against WT profilin: 25 fold

## LmProfilin-Y6A (from UniProt Q4Q5N1 2-150) (natural protein)
[2]
  Kd: 90 nM

## LmProfilin-ΔWH2 (entire WH2-like motif deleted) (from UniProt Q4Q5N1 2-150) (natural protein)
[2]
  fold reduction of affinity against WT profilin: 25 fold

B1: decamer poly-L-proline peptide (peptide)
peptide: PPPPPPPPPP
notes: ten L-prolines written out from these words; also called poly-L-proline decamer; polyproline decamer; source: synthetic peptide, bought: CASLO ApS
[3]
  Kd: 263000 nM

## B2
[4]
  stoichiometry N: 1
[5]
  Kd: ~90 nM
